Results: paper PMC10397247

Key:
4H1046-bA = molecular target: T1, 4H1046-bA; test: two-hybrid library CCNG1; conditions: mean of both orientations;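 also: natural log of median RNA to DNA barcode read ratio; higher means stronger binding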
T1 chain: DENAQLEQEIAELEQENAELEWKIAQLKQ

4H1072-bA = molecular target: T2, 4H1072-bA; test: two-hybrid library CCNG1;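 also: natural log of median RNA to DNA barcode read ratio; higher means stronger binding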
T2 chain: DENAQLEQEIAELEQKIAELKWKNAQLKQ

4H2568-bA = molecular target: T3, 4H2568-bA; test: two-hybrid library CCNG1;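 also: natural log of median RNA to DNA barcode read ratio; higher means stronger binding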
T3 chain: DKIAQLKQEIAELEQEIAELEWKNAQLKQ

4H2619-bA = molecular target: T4, 4H2619-bA; test: two-hybrid library CCNG1;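 also: natural log of median RNA to DNA barcode read ratio; higher means stronger binding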
T4 chain: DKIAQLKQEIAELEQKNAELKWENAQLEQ

4H2745-bA = molecular target: T5, 4H2745-bA; test: two-hybrid library CCNG1;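 also: natural log of median RNA to DNA barcode read ratio; higher means stronger binding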
T5 chain: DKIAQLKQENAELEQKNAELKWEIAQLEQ

4H344-bA = molecular target: T6, 4H344-bA; test: two-hybrid library CCNG1;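 also: natural log of median RNA to DNA barcode read ratio; higher means stronger binding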
T6 chain: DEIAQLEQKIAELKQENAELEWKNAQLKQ

4H363-bA = molecular target: T7, 4H363-bA; test: two-hybrid library CCNG1
T7 chain: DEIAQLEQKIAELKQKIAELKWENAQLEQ

4H3907-bA = molecular target: T8, 4H3907-bA; test: two-hybrid library CCNG1
T8 chain: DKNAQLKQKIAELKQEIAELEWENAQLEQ

4H3961-bA = molecular target: T9, 4H3961-bA; test: two-hybrid library CCNG1; conditions: mean of both orientations
T9 chain: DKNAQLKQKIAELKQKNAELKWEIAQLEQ

4H470-bA = molecular target: T10, 4H470-bA; test: two-hybrid library CCNG1
T10 chain: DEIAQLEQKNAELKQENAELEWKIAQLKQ

P4SC1 [1] = molecular target: T11, P4SC1; test: two-hybrid library CCNG1
T11 chain: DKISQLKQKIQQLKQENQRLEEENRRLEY

P4SC1 [2] = molecular target: T11, P4SC1; test: two-hybrid library CCmax; conditions: mean of both orientations

Binder: DENAQLEQEIAELEQENAELEWKIAQLKQ [4H1046-bA]
- interaction score (4H1046-bA): -0.316
- interaction score (4H1072-bA): -0.435
- interaction score (4H2568-bA): -1.17
- interaction score (4H2619-bA): -0.535
- interaction score (4H2745-bA): 0.103
- interaction score (4H344-bA): -0.743
- interaction score (4H363-bA): 0.269
- interaction score (4H3907-bA): -0.392
- interaction score (4H3961-bA): 1.98
- interaction score (4H470-bA): 0.412

Binder: DEIQQLEEEISQLEYKNYALKAKNEELKR [P3SC1]
- interaction score (P4SC1 [1]): 2.22
- interaction score (P4SC1 [2]): 1.43
